Test results as given in patent US20150218534A1, “MODIFIED DNA POLYMERASE” (TOYOBO CO., LTD., priority 2012, published 2015).

Columns and labels:
Assay type in all cases: biochemical
[1] = tested on: bisulfite-treated human genomic DNA (MINT1, RAR, THBS1, MINT31); assay: PCR amplification of bisulfite-treated DNA; conditions: 40 cycles (FIG. 12)
Experimental: (§1) Using bisulfite-treated DNA as a template and various primers, the difference in PCR amplification was compared. For comparison, KOD mutant (Y7A/V93K) and KOD (wild-type), each mixed with 1 μg of a KOD antibody per U of the enzyme, and Taq DNA polymerase mixed with an antibody (a mixture of equal amounts of Taq DNA polymerase (produced by Toyobo Co. Ltd.) and Anti-Taq High (produced by Toyobo Co. Ltd.)) were used.
The bisulfite-treated DNA used was human genomic DNA (produced by Roche) that had been treated with a MethylCode Bisulfite Conversion Kit of Invitrogen.
For PCR with the KOD mutant (Y7A/V93K) and PCR with the KOD, a buffer, MgSO4, and dNTPs included in KOD-Plus-Ver. 2 (produced by Toyobo Co. Ltd.) were used. 50 μl of individual reaction solutions containing 1× PCR buffer, 1.5 mM MgSO4, dNTPs (dATP, dTTP, dCTP, dGTP) in an amount of 0.2 mM, primers (SEQ ID NOs: 42 and 43 for amplification of MINT1; SEQ ID NOs: 44 and 45for amplification of RAR; SEQ ID NOs: 46 and 47 for amplification of THBS1; SEQ ID NOs: 48 and 49 for amplification of MINT31) in an amount of 15 pmol, 1 μl of bisulfite-treated DNA extract, and 1 U of each respective enzyme mixed with the antibody were used. PCR was performed using a GeneAmp PCR system 9700 (Applied Biosystems) on the following schedule: preliminary reaction at 94° C. for 2 minutes, followed by 40 cycles, each cycle consisting of 98° C. for 10 seconds, 55° C. for 15 seconds, and 68° C. for 1 minute.
For PCR with the Taq DNA polymerase, 50 μl of a reaction solution containing 1× buffer included in Blend Taq (product of Toyobo), dNTPs (dATP, […], dCTP, dGTP) in an amount of 0.2 mM, primers in an amount of 15 pmol (the same as above), 1 μl of bisulfite-treated DNA extract, and 2.5 U of the enzyme mixed with the antibody was used. […]
(§2) After the completion of each individual reaction, each of the resulting reaction solutions was analyzed using a DNA-1000 kit for MultiNA (produced by Shimadzu Corporation) to confirm amplified DNA fragments.

Psychrobacter DNA = assay: PCR amplification using inosine-containing primers; conditions: primers 75 pmol or 150 pmol, 35 cycles (FIG. 11)
Experimental: as §1, with “inosine-containing” for “bisulfite-treated DNA as a template and various”, “mutants” for “mutant (Y7A/V93K)”
For PCR with the KOD mutants and PCR with the KOD, a buffer, MgSO4, and dNTPs included in KOD-Plus-Ver. 2 (produced by Toyobo Co. Ltd.) were used. 50 μl of individual reaction solutions containing 1× PCR buffer, 1.5 mM MgSO4, dNTPs (dATP, dTTP, dCTP, dGTP) in an amount of 0.2 mM, primers (SEQ ID NOs: 40 and 41) in an amount of 75 pmol or 150 pmol, 100 ng of Psychrobacter DNA, and 1 U of each respective enzyme mixed with the antibody were used. PCR was performed using a GeneAmp PCR system 9700 (Applied Biosystems) on the following schedule: preliminary reaction at 94° C. for 2 minutes, followed by 35 cycles, each cycle consisting of 98° C. for 10 seconds, 54° C. for 10 seconds, and 68° C. for 1 minute.
For PCR with the Taq DNA polymerase, 50 μl of a reaction solution containing 1× buffer included in Blend Taq (product of Toyobo), dNTPs (dATP, […], dCTP, dGTP) in an amount of 0.2 mM, primers in an amount of 75 pmol or 150 pmol (the same as above), 100 ng of Psychrobacter DNA, and 2.5 U of the enzyme mixed with the antibody was used. PCR was performed using a GeneAmp PCR system 9700 (Applied Biosystems) on the following schedule: preliminary reaction at 94° C. for 2 minutes, followed by 35 cycles, each cycle consisting of 94° C. for 30 seconds, 54° C. for 30 seconds, and 68° C. for 1 minute.
as §2

[2] = tested on: human genomic DNA (about 1.3 kb) with dUTP added; assay: Evaluation of uracil (dUTP) sensitivity by PCR with dUTP added to the reaction; conditions: addition of 0.5 μM of dUTP
Experimental: The uracil sensitivity of the modified DNA polymerase of the present invention can be evaluated by PCR. For example, a dUTP solution is added at a final concentration of 0.5 μM to 200 μM to a common PCR reaction solution containing DNA as a template, a buffer, magnesium, dNTPs, primers, and a DNA polymerase to be evaluated, and thermal cycling is performed. After the reaction, the presence or absence of PCR products is confirmed by ethidium bromide-stained agarose electrophoresis, and the uracil sensitivity can be evaluated by the concentration of accepted dUTP. With a DNA polymerase having high uracil sensitivity, the extension reaction is inhibited by the addition of a small amount of dUTP, and PCR products cannot be confirmed. With a DNA polymerase having low uracil sensitivity, gene amplification by PCR can be confirmed without problem, even if a high concentration of dUTP is added. The modified DNA polymerase with low uracil sensitivity in the present invention refers to a DNA polymerase such that when optimum thermal cycling is performed using any primers and DNA as a template in a reaction buffer optimum for the enzyme, even if a high concentration of dUTP is added, an extension reaction is not inhibited and PCR products can be confirmed, compared to wild-type DNA polymerase, which has no mutation.
More specifically, 10× PCR buffer included in KOD-Plus-Ver. 2 (produced by Toyobo Co. Ltd.) or 10× PCR buffer included in Pfu DNA Polymerase (produced by Agilent) is used; dUTP (produced by Roche) is added to 50 μl of individual reaction solutions containing 1× PCR buffer, 1.5 mM MgSO4, dNTPs (dATP, dTTP, dCTP, and dGTP) in an amount of 0.2 mM, primers represented by SEQ ID NOs: 25 and 26 in an amount of 15 pmol for amplifying about 1.3 kb, 10 ng of human genomic DNA (produced by Roche), and 1 U of each respective enzyme, to final concentrations of 0.5, 5, 50, 100, and 200 μM. PCR is performed using a GeneAmp PCR system 9700 (Applied Biosystems) on the following schedule; preliminary reaction at 94° C. for 30 seconds, followed by 30 cycles, each cycle consisting of 98° C. for 10 seconds, 65° C. for 30 seconds, and 68° C. for 1 minute and 30 seconds. After the completion of each individual reaction, 5 μl of each of the resulting reaction solutions is subjected to agarose electrophoresis, followed by ethidium bromide staining. The uracil sensitivity can be evaluated by confirming amplified DNA fragments of about 1.3 kb under ultraviolet irradiation.
PCR was performed by the following method to evaluate uracil sensitivity. For PCR, components included in KOD-Plus-Ver. 2 (produced by Toyobo Co. Ltd.) were used. dUTP (produced by Roche) was added to 50 μl of individual reaction solutions containing 1× PCR buffer, 1.5 mM MgSO4, dNTPs (dATP, dTTP, dCTP, dGTP) in an amount of 0.2 mM, primers represented by SEQ ID NOs: 25 and 26 in an amount of 15 pmol for amplifying about 1.3 kb, 10 ng of human genomic DNA (produced by Roche), and 1 U of each respective enzyme, to final concentrations of 0.5, 5, 50, 100, and 200 μM. PCR was performed using a GeneAmp PCR system 9700 (produced by Applied Biosystems) on the following schedule: preliminary reaction at 94° C. for 30 seconds, followed by 30 cycles, each cycle consisting of 98° C. for 10 seconds, 65° C. for 30 seconds, and 68° C. for 1 minute and 30 seconds. After the completion of each individual reaction, 5 μl of each of the resulting reaction solutions was subjected to agarose electrophoresis, followed by ethidium bromide staining. Under ultraviolet irradiation, amplified DNA fragments of about 1.3 kb were confirmed. FIGS. 3, 4, 7, and 8 show the results.

B1: KOD (wild-type): wild-type DNA polymerase from Thermococcus kodakaraensis (KOD) (protein, listed as Thermococcus kodakaraensis)
chain: MILDTDYITEDGKPVIRIFKKENGEFKIEYDRTFEPYFYALLKDDSAIEEVKKITAERHGTVVTVKRVEKVQKKFLGRPVEVWKLYFTHPQDVPAIRDKIREHPAVIDIYEYDIPFAKRYLIDKGLVPMEGDEELKMLAFDIETLYHEGEEFAEGPILMISYADEEGARVITWKNVDLPYVDVVSTEREMIKRFLRVVKEKDPDVLITYNGDNFDFAYLKKRCEKLGINFALGRDGSEPKIQRMGDRFAVEVKGRIHFDLYPVIRRTINLPTYTLEAVYEAVFGQPKEKVYAEEITTAWETGENLERVARYSMEDAKVTYELGKEFLPMEAQLSRLIGQSLWDVSRSSTGNLVEWFLLRKAYERNELAPNKPDEKELARRRQSYEGGYVKEPERGLWENIVYLDFRSLYPSIIITHNVSPDTLNREGCKEYDVAPQVGHRFCKDFPGFIPSLLGDLLEERQKIKKKMKATIDPIERKLLDYRQRAIKILANSYYGYYGYARARWYCKECAESVTAWGREYITMTIKEIEEKYGFKVIYSDTDGFFATIPGADAETVKKKAMEFLKYINAKLPGALELEYEGFYKRGFFVTKKKYAVIDEEGKITTRGLEIVRRDWSEIAKETQARVLEALLKDGDVEKAVRIVKEVTEKLSKYEVPPEKLVIHEQITRDLKDYKATGPHVAVAKRLAARGVKIRPGTVISYIVLKGSGRIGDRAIPFDEFDPTKHKYDAEYYIENQVLPAVERILRAFGYRKEDLRYQKTRQVGLSAWLKPKGT
amplification of bisulfite-treated DNA [1]: not amplified
amplification with inosine-containing primers (Psychrobacter DNA): not amplified
PCR products on addition of dUTP [2]: no PCR products were confirmed
